According to US20110028538:

Test system: TR4 (Nr2c2), endogenous (Mus musculus)
Conditions: ChIP with anti-TR4 in RAW264.7 cells versus IgG

In the case of CD36 promoter region (ChIP amplicon), the binding signal is reported as greater than 4 fold.
